Assay results taken from patent US20240182536A1 (MURAL ONCOLOGY, published 2024).
Changes are numbered by the printed parent chain. Names may count otherwise.

T1: human IL-18 binding protein (human, UniProt O95998 31-194)
T1 sequence (looked up): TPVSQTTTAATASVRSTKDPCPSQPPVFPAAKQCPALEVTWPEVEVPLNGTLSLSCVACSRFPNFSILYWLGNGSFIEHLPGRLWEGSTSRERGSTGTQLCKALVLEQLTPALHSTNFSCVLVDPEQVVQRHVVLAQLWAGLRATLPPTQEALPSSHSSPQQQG

T2: IL-18 receptors on HEK-Blue IL-18 reporter cells (UniProt Q13478 19-541; O95256 20-599, limits assumed)
T2 sequence (looked up) 1: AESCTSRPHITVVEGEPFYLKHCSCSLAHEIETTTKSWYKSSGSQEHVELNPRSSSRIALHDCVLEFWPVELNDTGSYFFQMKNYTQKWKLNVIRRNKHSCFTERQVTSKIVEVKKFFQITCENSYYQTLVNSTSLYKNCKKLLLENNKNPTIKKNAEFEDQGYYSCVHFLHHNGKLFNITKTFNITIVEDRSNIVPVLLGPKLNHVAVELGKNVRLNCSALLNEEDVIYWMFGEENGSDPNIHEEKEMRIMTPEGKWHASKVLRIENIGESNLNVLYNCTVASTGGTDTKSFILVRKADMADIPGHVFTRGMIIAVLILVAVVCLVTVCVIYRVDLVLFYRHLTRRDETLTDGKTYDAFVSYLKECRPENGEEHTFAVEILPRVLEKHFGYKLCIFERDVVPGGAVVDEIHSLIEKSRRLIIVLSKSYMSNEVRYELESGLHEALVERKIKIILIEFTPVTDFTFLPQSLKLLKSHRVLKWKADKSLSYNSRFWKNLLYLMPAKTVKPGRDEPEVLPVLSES
T2 sequence (looked up) 2: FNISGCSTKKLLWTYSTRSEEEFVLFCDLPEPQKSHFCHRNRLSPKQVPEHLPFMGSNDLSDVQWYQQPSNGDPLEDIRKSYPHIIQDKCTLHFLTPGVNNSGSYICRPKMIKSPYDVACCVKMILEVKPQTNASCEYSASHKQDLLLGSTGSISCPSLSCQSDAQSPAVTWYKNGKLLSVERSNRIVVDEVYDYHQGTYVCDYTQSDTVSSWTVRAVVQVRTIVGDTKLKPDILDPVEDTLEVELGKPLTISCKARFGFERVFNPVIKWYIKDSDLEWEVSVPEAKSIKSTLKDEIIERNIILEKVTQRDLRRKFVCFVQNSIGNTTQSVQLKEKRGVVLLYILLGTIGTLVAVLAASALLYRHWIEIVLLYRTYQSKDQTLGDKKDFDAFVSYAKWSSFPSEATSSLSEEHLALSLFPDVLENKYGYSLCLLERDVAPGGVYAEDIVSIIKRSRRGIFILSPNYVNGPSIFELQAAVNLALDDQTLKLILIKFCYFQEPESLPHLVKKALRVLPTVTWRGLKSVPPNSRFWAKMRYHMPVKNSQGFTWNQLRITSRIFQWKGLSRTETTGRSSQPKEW

B1: yeast display IL-18 variant K53T, S55F (ligand)
chain: YFGKLESKLSVIRNLNDQVLFIDQGNRPLFEDMTDSDMRDNAPRTIFIISMYTDFQPRGMAVTISVKSEKISTLSSENKIISFKEMNPPDNIKDTKSDIIFFQRSVPGHDNKMQFESSSYEGYFLASEKERDLFKLILKKEDELGDRSIMFTVQNED
B2: yeast display IL-18 variant K53D, S55N (ligand)
chain: B1 chain with T53D, F55N
B3: yeast display IL-18 variant K53H, S55V (ligand)
chain: B1 chain with T53H, F55V
B4: yeast display IL-18 variant K53Q, D54N, S55M, Q56H (ligand)
chain: B1 chain with T53Q, D54N, F55M, Q56H
B5: yeast display IL-18 variant T34I, S36T, D40A, N41M, K53T, S55Y (ligand)
chain: B1 chain with T34I, S36T, D40A, N41M, F55Y
B6: yeast display IL-18 variant L5W, S7Y, K53H, S55M (ligand)
chain: B1 chain with L5W, S7Y, T53H, F55M
B7: yeast display IL-18 variant K53N, S55M, R104S, P107A (ligand)
chain: B1 chain with T53N, F55M, R104S, P107A
B8: yeast display IL-18 variant K53G, S55V (ligand)
chain: B1 chain with T53G, F55V
B9: yeast display IL-18 variant K53G, S55I (ligand)
chain: B1 chain with T53G, F55I
B10: yeast display IL-18 variant K53N, S55I (ligand)
chain: B1 chain with T53N, F55I
B11: yeast display IL-18 variant K53S, S55F, R104K, H109Y (ligand)
chain: B1 chain with T53S, R104K, H109Y
B12: yeast display IL-18 variant E6D, S36F, K53T, S55M, R58K (ligand)
chain: B1 chain with E6D, S36F, F55M, R58K
B13: yeast display IL-18 variant K53W, S55A (ligand)
chain: B1 chain with T53W, F55A

Target: T1, human IL-18 binding protein
Assay: cell-based or functional assay

Binder | HEK-Blue activity, +100 nM BP, DF-10000 | HEK-Blue activity, +100 nM BP, DF-100,000 | HEK-Blue activity, +100 nM BP, DF-1,000,000 | Ratio (-BP/+BP), DF-10000 | Ratio (-BP/+BP), DF-100,000 | Ratio (-BP/+BP), DF-1,000,000
B1 | 0.6 | 0.18 | 0.25 | 1.12 | 1.09 | 0.64
B2 | 0.47 | 0.12 | 0.09 | 0.95 | 1.05 | 1
B3 | 1.05 | 0.34 | 0.14 | 1.53 | 2.79 | 2.31
B4 | 0.21 | 0.11 | 0.09 | 2.21 | 1.16 | 1.06
B5 | 0.37 | 0.12 | 0.12 | 1.03 | 1.45 | 1.18
B6 | 0.12 | 0.12 | 0.13 | 4.04 | 1.41 | 1.24
B7 | 0.15 | 0.12 | 0.11 | 5.37 | 1.93 | 1.08
B8 | 0.57 | 0.15 | 0.1 | 0.98 | 1.01 | 1.03
B9 | 0.76 | 0.19 | 0.13 | 0.77 | 0.73 | 0.7
B10 | 0.29 | 0.11 | 0.09 | 1.1 | 1 | 0.99
B11 | 0.14 | 0.09 | 0.09 | 3.08 | 1.18 | 0.95
B12 | 0.5 | 0.14 | 0.09 | 0.96 | 1.02 | 0.96
B13 | 0.31 | 0.16 | 0.13 | 0.89 | 0.84 | 0.84

Target: T2, IL-18 receptors on HEK-Blue IL-18 …
Assay: cell-based or functional assay

Binder | HEK-Blue activity, No BP, DF-10000 | HEK-Blue activity, No BP, DF-100,000 | HEK-Blue activity, No BP, DF-1,000,000
B1 | 0.67 | 0.2 | 0.16
B2 | 0.45 | 0.13 | 0.09
B3 | 1.6 | 0.94 | 0.33
B4 | 0.46 | 0.13 | 0.09
B5 | 0.38 | 0.18 | 0.14
B6 | 0.5 | 0.16 | 0.16
B7 | 0.8 | 0.24 | 0.12
B8 | 0.56 | 0.15 | 0.1
B9 | 0.59 | 0.14 | 0.09
B10 | 0.32 | 0.11 | 0.09
B11 | 0.43 | 0.11 | 0.09
B12 | 0.48 | 0.14 | 0.09
B13 | 0.28 | 0.13 | 0.11
